Assay results as given in patent publication US20120034160A1 (AbbVie / Abbott, published 2012).
Values joined by “and” are separate entries in the source; they are usually repeats but may differ in a detail not shown here. Identical values can stand only once.

T1: Recombinant Human IL-17 (human, UniProt Q16552 20-155, limits assumed)
T1 sequence (looked up): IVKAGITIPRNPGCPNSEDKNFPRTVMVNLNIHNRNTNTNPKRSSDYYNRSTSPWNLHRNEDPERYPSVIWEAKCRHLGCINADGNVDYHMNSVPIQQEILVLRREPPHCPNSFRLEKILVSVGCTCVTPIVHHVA


Experiments:
[1] = biological target: T2, Recombinant Human IL-1β (human, UniProt P01584 117-269); experiment: cell-based or functional assay
[2] = biological target: T2, Recombinant Human IL-1β; experiment: Biacore SPR
Method: (§1) The BIACORE assay (Biacore, Inc, Piscataway, N.J.) determines the affinity of antibodies or DVD-Ig with kinetic measurements of on-rate and off-rate constants. Binding of antibodies or DVD-Ig to a target antigen (for example, a purified recombinant target antigen) was determined by surface plasmon resonance-based measurements with a Biacore® 1000 or 3000 instrument (Biacore® AB, Uppsala, Sweden) using running HBS-EP (10 mM HEPES [pH 7.4], 150 mM NaCl, 3 mM EDTA, and 0.005% surfactant P20) at 25° C. All chemicals were obtained from Biacore® AB (Uppsala, Sweden) or otherwise from a different source as described in the text. For example, approximately 5000 RU of goat anti-mouse IgG, (Fcγ), fragment specific polyclonal antibody (Pierce Biotechnology Inc, Rockford, Ill.) diluted in 10 mM sodium acetate (pH 4.5) was directly immobilized across a CM5 research grade biosensor chip using a standard amine coupling kit according to manufacturer's instructions and procedures at 25 μg/ml. Unreacted moieties on the biosensor surface were blocked with ethanolamine. Modified carboxymethyl dextran surface in flowcell 2 and 4 was used as a reaction surface. Unmodified carboxymethyl dextran without goat anti-mouse IgG in flow cell 1 and 3 was used as the reference surface. For kinetic analysis, rate equations derived from the 1:1 Langmuir binding model were fitted simultaneously to association and dissociation phases of all eight injections (using global fit analysis) with the use of Biaevaluation 4.0.1 software. Purified antibodies or DVD-Ig were diluted in HEPES-buffered saline for capture across goat anti-mouse IgG specific reaction surfaces. Antibodies or DVD-Ig to be captured as a ligand (25 μg/ml) were injected over reaction matrices at a flow rate of 5 μl/min. The association and dissociation rate constants, kₒₙ (M⁻¹s⁻¹) and koff (s⁻¹) were determined under a continuous flow rate of 25 μl/min. Rate constants were derived by making kinetic binding measurements at different antigen concentrations ranging from 10−200 nM. The equilibrium dissociation constant (M) of the reaction between antibodies or DVD-Igs and the target antigen was then calculated from the kinetic rate constants by the following formula: KD=koff/kₒₙ. Binding was recorded as a function of time and kinetic rate constants are calculated.

[3] = biological target: T3, Recombinant Human IL-1β (human, UniProt P01584 117-269); experiment: Biacore SPR
T3 construct: bought reagent; also called IL-1B
Method: as §1

[4] = biological target: T1, Recombinant Human IL-17; experiment: cell-based or functional assay
[5] = biological target: T1, Recombinant Human IL-17; experiment: Biacore SPR; N-terminal VD
Outline: (§2)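 SPR, 25° C, HBS-EP (10 mM HEPES pH 7.4, 150 mM NaCl, 3 mM EDTA, 0.005% P20). Capture via anti-mouse IgG Fcγ chip; analyte 10−200 nM at 25 μl/min. 1:1 Langmuir global fit; KD = koff/kon.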

[6] = biological target: T2, Recombinant Human IL-1β; experiment: Biacore SPR; C-terminal VD
Outline: as §2

Row | IL-1β Neutralization Assay EC50 [1] | Kd [2] | koff [2] | kon [2] | Kd [3] | koff [3] | kon [3] | Binder | also measured
1 | 0.245 nM | 0.08 nM | 0.00053 s⁻¹ | 6.6e+06 M⁻¹ s⁻¹ |  |  |  | AB270 (antibody, human IgG1, kappa, V domains shown, Parent antibody) VH: EVQLQESGPGLVKPSETLSLTCTVSGFSLSDYGVSWIRQPPGKGLEWLGLIWGGGDTYYNSPLKSRLTISKDNSKSQVSLKLSSVTAADTAVYYCAKQRTLWGYDLYGMDYWGQGTLVTVSS VL: DTQVTQSPSSLSASVGDRVTITCITSTDIDVDMNWYQQKPGKPPKLLISQGNTLRPGVPSRFSSSGSGTDFTFTISSLQPEDFATYYCLQSDNLPLTFGQGTKLEIKR | 
2 |  |  |  |  | 0.11 nM and 0.096 nM | 0.00055 s⁻¹ and 0.00057 s⁻¹ and 0.00051 s⁻¹ | 5.1e+06 M⁻¹ s⁻¹ and 6e+06 M⁻¹ s⁻¹ and 4.6e+06 M⁻¹ s⁻¹ | AB271 (antibody, human IgG1, kappa, V domains shown, constants by vectors: V1 wt hIgG1, V2 kappa) VH: EVQLQESGPGLVKPSETLSLTCTVSGFSLSDYGVSWIRQPPGKGLEWLGLIWGGGDTYYNSPLKSRLTISKDNSKSQVSLKLSSVTAADTAVYYCAKQRTLWGYDLYGMDYWGQGTLVTVSS VL: DTVVTQSPAFLSVTPGEKVTITCITSTDIDVDMNWYQQKPDQPPKLLISQGNTLRPGVPSRFSSSGSGTDFTFTISSLEAEDAATYYCLQSDNLPLTFGQGTKLEIKR | 
3 |  |  |  |  | 0.089 nM and 0.082 nM and 0.08 nM | 0.00058 s⁻¹ and 0.00055 s⁻¹ and 0.00053 s⁻¹ | 6.5e+06 M⁻¹ s⁻¹ and 6.7e+06 M⁻¹ s⁻¹ and 6.6e+06 M⁻¹ s⁻¹ | AB270 (antibody, human IgG1, kappa, V domains shown, constants by vectors: V1 wt hIgG1, V2 kappa) VH: EVQLQESGPGLVKPSETLSLTCTVSGFSLSDYGVSWIRQPPGKGLEWLGLIWGGGDTYYNSPLKSRLTISKDNSKSQVSLKLSSVTAADTAVYYCAKQRTLWGYDLYGMDYWGQGTLVTVSS VL: DTQVTQSPSSLSASVGDRVTITCITSTDIDVDMNWYQQKPGKPPKLLISQGNTLRPGVPSRFSSSGSGTDFTFTISSLQPEDFATYYCLQSDNLPLTFGQGTKLEIKR | 
4 | 0.308 nM | 0.11 nM | 0.00051 s⁻¹ | 4.6e+06 M⁻¹ s⁻¹ |  |  |  | AB271 (antibody, human IgG1, kappa, V domains shown, Parent antibody) VH: EVQLQESGPGLVKPSETLSLTCTVSGFSLSDYGVSWIRQPPGKGLEWLGLIWGGGDTYYNSPLKSRLTISKDNSKSQVSLKLSSVTAADTAVYYCAKQRTLWGYDLYGMDYWGQGTLVTVSS VL: DTVVTQSPAFLSVTPGEKVTITCITSTDIDVDMNWYQQKPDQPPKLLISQGNTLRPGVPSRFSSSGSGTDFTFTISSLEAEDAATYYCLQSDNLPLTFGQGTKLEIKR | 
5 | 0.298 nM | 0.14 nM | 0.00056 s⁻¹ | 4e+06 M⁻¹ s⁻¹ |  |  |  | AB272 (antibody, human IgG1, kappa, V domains shown, Parent antibody) VH: EVQLVESGGGLVQPGGSLRLSCAVSGFTLSDYGVSWIRQAPGKGLEWLGLIWGGGDTYYNSPLKSRLTISKDNSKSTVYLQMNSLRAEDTAVYYCAKQRTLWGYDLYGMDYWGQGTLVTVSS VL: ETTVTQSPSSLSASVGDRVTITCITSTDIDVDMNWYQQKPGKPPKLLISQGNTLRPGVPSRFSSSGSGTDFTFTISSLQPEDFATYYCLQSDNLPLTFGQGTKLEIKR | 
6 |  |  |  |  | 0.14 nM and 0.12 nM | 0.00053 s⁻¹ and 0.00066 s⁻¹ and 0.00056 s⁻¹ | 3.9e+06 M⁻¹ s⁻¹ and 5.3e+06 M⁻¹ s⁻¹ and 4e+06 M⁻¹ s⁻¹ | AB272 (antibody, human IgG1, kappa, V domains shown, constants by vectors: V1 wt hIgG1, V2 kappa) VH: EVQLVESGGGLVQPGGSLRLSCAVSGFTLSDYGVSWIRQAPGKGLEWLGLIWGGGDTYYNSPLKSRLTISKDNSKSTVYLQMNSLRAEDTAVYYCAKQRTLWGYDLYGMDYWGQGTLVTVSS VL: ETTVTQSPSSLSASVGDRVTITCITSTDIDVDMNWYQQKPGKPPKLLISQGNTLRPGVPSRFSSSGSGTDFTFTISSLQPEDFATYYCLQSDNLPLTFGQGTKLEIKR | 
7 |  |  |  |  |  |  |  | DVD1646 (bispecific antibody, human IgG1, kappa, DVD-Ig: outer AB275, inner AB271; V1/V2 vectors: wild type hIgG1, kappa) heavy: not shown light: EIVLTQSPDFQSVTPKEKVTITCRASQNIGSELHWYQQKPDQSPKLLIKYASHSISGVPSRFSGSGSGTDFTLTINGLEAEDAATYYCHQSDTLPHTFGQGTKVDIKRTVAAPDTVVTQSPAFLSVTPGEKVTITCITSTDIDVDMNWYQQKPDQPPKLLISQGNTLRPGVPSRFSSSGSGTDFTFTISSLEAEDAATYYCLQSDNLPLTFGQGTKLEIKRTVAAPSVFIFPPSDEQLKSGTASVVCLLNNFYPREAKVQWKVDNALQSGNSQESVTEQDSKDSTYSLSSTLTLSKADYEKHKVYACEVTHQGLSSPVTKSFNRGEC | N-terminal VD IL-17 Neutralization Assay EC50 [4]: 0.0082 nM; Kd [5]: 0.012 nM; koff [5]: 4.7e-05 s⁻¹; kon [5]: 3.9e+06 M⁻¹ s⁻¹; C-Terminal VD IL-1β Neutralization Assay EC50 [1]: 20.6 nM; Kd [6]: 0.62 nM; koff [6]: 0.00063 s⁻¹; kon [6]: 1e+06 M⁻¹ s⁻¹
